# Values joined by “and” are separate entries in the source; they are usually repeats but may differ in a detail not shown here. Equal entries are not always repeated.
# B1: N-CAM: neural cell adhesion molecule purified from early postnatal rat brains by affinity chromatography, mainly polysialylated embryonic form (protein, UniProt P13596 20-858, looked up)
# Neural cell adhesion molecule …: LQVDIVPSQGEISVGESKFFLCQVAGDAKDKDISWFSPNGEKLSPNQQRISVVWNDDDSSTLTIYNANIDDAGIYKCVVTAEDGTQSEATVNVKIFQKLMFKNAPTPQEFKEGEDAVIVCDVVSSLPPTIIWKHKGRDVILKKDVRFIVLSNNYLQIRGIKKTDEGTYRCEGRILARGEINFKDIQVIVNVPPTVQARQSIVNATANLGQSVTLVCDADGFPEPTMSWTKDGEPIENEEEDDEKHIFSDDSSELTIRNVDKNDEAEYVCIAENKAGEQDASIHLKVFAKPKITYVENQTAMELEEQVTLTCEASGDPIPSITWRTSTRNISSEEKASWTRPEKQETLDGHMVVRSHARVSSLTLKSIQYTDAGEYICTASNTIGQDSQSMYLEVQYAPKLQGPVAVYTWEGNQVNITCEVFAYPSATISWFRDGQLLPSSNYSNIKIYNTPSASYLEVTPDSENDFGNYNCTAVNRIGQESLEFILVQADTPSSPSIDRVEPYSSTAQVQFDEPEATGGVPILKYKAEWKSLGEEAWHSKWYDAKEANMEGIVTIMGLKPETRYAVRLAALNGKGLGEISAATEFKTQPVREPSAPKLEGQMGEDGNSIKVNLIKQDDGGSPIRHYLVKYRALASEWKPEIRLPSGSDHVMLKSLDWNAEYEVYVVAENQQGKSKAAHFVFRTSAQPTAIPANGSPTAGLSTGAIVGILIVIFVLLLVVMDITCYFLNKCGLLMCIAVNLCGKAGPGAKGKDMEEGKAAFSKDESKEPIVEVRTEEERTPNHDGGKHTEPNETTPLTEPEKGPVETKSEPQESEAKPAPTEVKTVPNEATQTKENESKA
# modifications: polysialylated embryonic form
# Experiments:
# [1] = test system: tyrosine phosphorylated proteins (60-70 kDa and approximately 120 kDa); assay: Anti-phosphotyrosine immunoprecipitation and immunoblot of bFGF-stimulated astrocytes; type: cell-based, rat; conditions: N-CAM 2 μg/ml 30 minutes, then bFGF 100 ng/ml 10 minutes
# Description: Astrocyte cells were seeded at a density of 7×10^4 /cm^2 in a 100 mm tissue culture dish in Dulbecco's modified essential medium (DMEM) containing 10% fetal calf serum and gentamycin (5 μg/ml) at 37 degrees C with 7% CO2. After overnight culture, the medium was replaced with serum-free medium and the cells are cultured for an additional 48 hr. The serum-starved cells were treated for 30 minutes in the presence of N-CAM (2 μg/ml) or buffer alone and then stimulated for 10 minutes with bFGF (100 ng/ml) to stimulate tyrosine phosphorylation through the FGF receptor. […]
# Immunoblotting was performed by incubation with the indicated antibodies followed by ^125 I-labeled protein A; the resulting autoradiogram was exposed for 14 hr on XAR film at -70° C. or scanned on a Molecular Dynamics PhosphorImager (Sunnyvale, Calif.). The amount of reactivity with antibodies to phosphotyrosine relative to the amount of reactivity with antibodies to each specific protein can be calculated from imaging these gel blots, in extracts from N-CAM treated cells vs. non treated cells. This determines whether the FGF receptor or other proteins analyzed in this same paradigm are changed in their levels of tyrosine phosphorylation upon N-CAM treatment.
# [2] = test system: rat forebrain astrocytes in primary culture; assay: Astrocyte proliferation assay ([3H]-thymidine incorporation normalized to [35S]-methionine); type: cell-based; conditions: for inhibition of proliferation depending on cell density: 2 μg/ml N-CAM
# Description: Primary cultures of astrocytes were prepared from the forebrains of 4-5 day old neonatal rats. After decapitation and removal of the forebrains from the skull, the meninges were carefully peeled off, and forebrain tissue was triturated in sterile phosphate buffered saline (PBS) using firepolished pipettes. The resulting suspension of tissue fragments was incubated in Hank's balanced salt solution (Gibco BRL) with 2.5 mg/ml trypsin, 1 mM EDTA and 0.1 mg/ml DNase (Boehringer) at 37° C. for 15 minutes. […] The pellet was resuspended in serum free medium (SFM) consisting of Dulbecco's Modified Eagle Medium (D-MEM), 2 mM L-glutamine, 50 U/ml penicillin G sodium and 50 μg/ml streptomycin sulfate (all from Gibco BRL) supplemented by 10% (vol/vol) fetal bovine serum (FBS). The cells were transferred to a standard 100 mm tissue culture dish (Falcon) and incubated at 37° C. for 1-2 hours. After mild shaking, the supernatant containing unattached cells was transferred to a 100 mm collagen-coated dish. […] Cell samples were checked regularly for the expression of GFAP, a marker for astrocytes.
# After cell attachment, the culture medium was exchanged for SFM. In antisense experiments, oligonucleotides were added at the same time (T=0). […] After another 12 hours (at T=60), [^3 H]-thymidine (New England Nuclear, 20 Ci/mmol) was added (0.38 μM, 10 μCi/ml). Following an additional 12 hours (T=72), the wells were drained, counts precipitated by ice-cold […] trichloroacetic acid, and the plates left to dry. Counts were solubilized overnight by adding 100 μl 1 N KOH to each well, neutralized with 100 μl 1 N HCl, transferred to liquid scintillation vials and counted in 3 ml of Beckman Ready Safe liquid scintillation cocktail on a Packard 1600 TR counter. […] In this paper, proliferation is expressed as [^3 H]-thymidine incorporation normalized to [35]-methionine incorporation and calculated as [^3 H] dpm/ [35] dpm.
# [3] = test system: C6 glioma cells; assay: Proliferation of C6 glioma cells in SFM at low cell densities; type: cell-based; conditions: externally added N-CAM
molecule,measurement,setting,value
B1,tyrosine phosphorylation of a 60-70 kDa protein and a protein at approximately 120 kDa,[1],diminished tyrosine phosphorylation
same,inhibition of proliferation depending on cell density,"[2]; higher cell density 28×10^4 cells/cm^2, confluent",virtually ineffective
same,inhibition of proliferation depending on cell density,[2]; lower cell density 1.8×10^4 cells/cm^2,Inhibition was maximal
same,N-CAM Alone,"[2]; N-CAM 2 μg/ml, parallel control of each drug experiment (Table 5)",32.5 % of SFM Control and 34 % of SFM Control
same,maximal suppression of proliferation,"[2]; N-CAM 10 μg/ml in SFM, 7×10^4 cells/cm^2, three preparations",> 90%
same,effect on astrocyte proliferation (in words),[2]; added to astrocyte cultures in SFM,inhibited their proliferation in a concentration dependent manner
same,suppressive effect of N-CAM added together with growth stimulus,[2]; with 1% FBS or 20 ng/ml bFGF,suppressive effect similar in magnitude to that observed in SFM
same,rate of proliferation of C6 glioma cells,[3],decrease their rate of proliferation

# From US5985822A, “Inhibition of glial cell proliferation with N-CAM homophilic peptides” (The Scripps Research Institute, priority 1995, dated 1999)
